Target: biotinylated D614G SARS-CoV-2 spike trimer (SARS-CoV-2) (UniProt P0DTC2)
Assay: AlphaLISA, inhibition of ACE2-muFc / biotinylated spike complex

anti-RBD neutralizing monoclonal antibody (human IgG1) from Acro Biosystems (SAD-S35)
IC50: 1.84 nM

Reference: patent US20230002478A1
